Experimental data taken from patent US20260265379A1.

B1: bsAb038 (bispecific antibody, not shown: small tags and cut ends)
heavy (part 1 of 2): QVQLVQSGAEVKKPGASVKLSCKASGYIFTRYYMYWVKQRPGQGLEWIGEINPNNGGTKFNEKFKNRATLTVDKSISTAYMELSRLRSDDTAVYYCSREDDYDGTPFAMDYWGQGTLVTVSS
heavy (part 2 of 2): GGGGSGGGGSGGGGSGGGGSEIVLTQSPATLSLSPGERATLSCRASKGVSTSGYSYLHWYQQKPGQAPRLLIYLASYLESGVPARFSGSGSGTDFTLTISSLEPEDFAVYYCQHSRDLPLTFGGGTKVEIKGGGGSGGGGSGGGGSGGGGSQVQLVQSGVEVKKPGASVKVSCKASGYTFTNYYMYWVRQAPGQGLEWMGGINPSNGGTNFNEKFKNRVTLTTDSSTTTAYMELKSLQFDDTAVYYCARRDYRFDMGFDYWGQGTTVTVSS
heavy: B1 heavy (part 1 of 2)
light: not shown
B2: bsAb052 (bispecific antibody, not shown: small tags and cut ends; a dimerising Fc or GST)
heavy (part 1 of 2): B1 heavy (part 1 of 2)
heavy (part 2 of 2): GGGGSGGGGSGGGGSGGGGSQVQLVQSGVEVKKPGASVKVSCKASGYTFTNYYMYWVRQAPGQGLEWMGGINPSNGGTNFNEKFKNRVTLTTDSSTTTAYMELKSLQFDDTAVYYCARRDYRFDMGFDYWGQGTTVTVSSGGGGSGGGGSGGGGSGGGGSEIVLTQSPATLSLSPGERATLSCRASKGVSTSGYSYLHWYQQKPGQAPRLLIYLASYLESGVPARFSGSGSGTDFTLTISSLEPEDFAVYYCQHSRDLPLTFGGGTKVEIK
heavy: B2 heavy (part 2 of 2)
light: not shown
B3: bsAb047 (bispecific antibody, not shown: small tags and cut ends)
heavy 1: EIVLTQSPATLSLSPGERATLSCRASKGVSTSGYSYLHWYQQKPGQAPRLLIYLASYLESGVPARFSGSGSGTDFTLTISSLEPEDFAVYYCQHSRDLPLTFGGGTKVEIKGGGGSGGGGSGGGGSGGGGSQVQLVQSGVEVKKPGASVKVSCKASGYTFTNYYMYWVRQAPGQGLEWMGGINPSNGGTNFNEKFKNRVTLTTDSSTTTAYMELKSLQFDDTAVYYCARRDYRFDMGFDYWGQGTTVTVSSGGGGSGGGGSGGGGSGGGGSQVQLVQSGAEVKKPGASVKLSCKASGYIFTRYYMYWVKQRPGQGLEWIGEINPNNGGTKFNEKFKNRATLTVDKSISTAYMELSRLRSDDTAVYYCSREDDYDGTPFAMDYWGQGTLVTVSS
heavy 2: B1 heavy (part 1 of 2)
light: not shown
B4: bsAb049 (bispecific antibody, not shown: small tags and cut ends)
heavy 1: QVQLVQSGVEVKKPGASVKVSCKASGYTFTNYYMYWVRQAPGQGLEWMGGINPSNGGTNFNEKFKNRVTLTTDSSTTTAYMELKSLQFDDTAVYYCARRDYRFDMGFDYWGQGTTVTVSSGGGGSGGGGSGGGGSGGGGSEIVLTQSPATLSLSPGERATLSCRASKGVSTSGYSYLHWYQQKPGQAPRLLIYLASYLESGVPARFSGSGSGTDFTLTISSLEPEDFAVYYCQHSRDLPLTFGGGTKVEIKGGGGSGGGGSGGGGSGGGGSQVQLVQSGAEVKKPGASVKLSCKASGYIFTRYYMYWVKQRPGQGLEWIGEINPNNGGTKFNEKFKNRATLTVDKSISTAYMELSRLRSDDTAVYYCSREDDYDGTPFAMDYWGQGTLVTVSS
heavy 2: B1 heavy (part 1 of 2)
light: not shown
B5: bsAb056 (bispecific antibody, not shown: a dimerising Fc or GST; small tags and cut ends)
heavy 1: B2 heavy (part 2 of 2)
heavy 2: B1 heavy (part 1 of 2)
light: not shown
B6: bsAb061 (bispecific antibody)
heavy: QVQLVQSGAEVKKPGASVKLSCKASGYIFTRYYMYWVKQRPGQGLEWIGEINPNNGGTKFNEKFKNRATLTVDKSISTAYMELSRLRSDDTAVYYCSREDDYDGTPFAMDYWGQGTLVTVSSASTKGPSVFPLAPSSKSTSGGTAALGCLVKDYFPEPVTVSWNSGALTSGVHTFPAVLQSSGLYSLSSVVTVPSSSLGTQTYICNVNHKPSNTKVDKRVEPKSCDKTHTCPPCPAPEFEGGPSVFLFPPKPKDTLMISRTPEVTCVVVDVSHEDPEVKFNWYVDGVEVHNAKTKPREEQYNSTYRVVSVLTVLHQDWLNGKEYKCKVSNKALPASIEKTISKAKGQPREPQVYTLPPSREEMTKNQVSLTCLVKGFYPSDIAVEWESNGQPENNYKTTPPVLDSDGSFFLYSKLTVDKSRWQQGNVFSCSVMHEALHNHYTQKSLSLSPG
light: not shown
B7: bsAb062 (bispecific antibody)
heavy: B6 heavy
light: not shown
B8: bsAb068 (bispecific antibody)
heavy: QVQLVQSGVEVKKPGASVKVSCKASGYTFTNYYMYWVRQAPGQGLEWMGGINPSNGGTNFNEKFKNRVTLTTDSSTTTAYMELKSLQFDDTAVYYCARRDYRFDMGFDYWGQGTTVTVSSASTKGPSVFPLAPSSKSTSGGTAALGCLVKDYFPEPVTVSWNSGALTSGVHTFPAVLQSSGLYSLSSVVTVPSSSLGTQTYICNVNHKPSNTKVDKRVEPKSCDKTHTCPPCPAPEFEGGPSVFLFPPKPKDTLMISRTPEVTCVVVDVSHEDPEVKFNWYVDGVEVHNAKTKPREEQYNSTYRVVSVLTVLHQDWLNGKEYKCKVSNKALPASIEKTISKAKGQPREPQVYTLPPSREEMTKNQVSLTCLVKGFYPSDIAVEWESNGQPENNYKTTPPVLDSDGSFFLYSKLTVDKSRWQQGNVFSCSVMHEALHNHYTQKSLSLSPG
light: not shown
B9: bsAb031 (bispecific antibody)
heavy: not shown
light: EIVLTQSPATLSLSPGERATLSCRASKGVSTSGYSYLHWYQQKPGQAPRLLIYLASYLESGVPARFSGSGSGTDFTLTISSLEPEDFAVYYCQHSRDLPLTFGGGTKVEIKRTVAAPSVFIFPPSDEQLKSGTASVVCLLNNFYPREAKVQWKVDNALQSGNSQESVTEQDSKDSTYSLSSTLTLSKADYEKHKVYACEVTHQGLSSPVTKSFNRGEC
B10: bsAb006 (bispecific antibody)
heavy: QVQLVQSGVEVKKPGASVKVSCKASGYTFTNYYMYWVRQAPGQGLEWMGGINPSNGGTNFNEKFKNRVTLTTDSSTTTAYMELKSLQFDDTAVYYCARRDYRFDMGFDYWGQGTTVTVSSASTKGPSVFPLAPSSKSTSGGTAALGCLVKDYFPEPVTVSWNSGALTSGVHTFPAVLQSSGLYSLSSVVTVPSSSLGTQTYICNVNHKPSNTKVDKRVEPKSCDKTHTCPPCPAPEFEGGPSVFLFPPKPKDTLMISRTPEVTCVVVDVSHEDPEVKFNWYVDGVEVHNAKTKPREEQYNSTYRVVSVLTVLHQDWLNGKEYKCKVSNKALPASIEKTISKAKGQPREPQVYTLPPSREEMTKNQVSLTCLVKGFYPSDIAVEWESNGQPENNYKTTPPVLDSDGSFFLYSKLTVDKSRWQQGNVFSCSVMHEALHNHYTQKSLSLSPGGGGGSGGGGSGGGGSGGGGSDIQMTQSPSSLSASVGDRVTITCHASQNINVWLSWYQQKPGKAPKLLIYKASNLHTGVPSRFTGSGSGTDFTFTISSLQPEDIATYYCQQGQTYPYTFGQGTKLEIKGGGGSGGGGSGGGGSGGGGSQVQLVQSGAEVKKPGASVKLSCKASGYIFTRYYMYWVKQRPGQGLEWIGEINPNNGGTKFNEKFKNRATLTVDKSISTAYMELSRLRSDDTAVYYCSREDDYDGTPFAMDYWGQGTLVTVSS
light: B9 light
B11: bsAb002 (bispecific antibody)
heavy: QVQLVQSGVEVKKPGASVKVSCKASGYTFTNYYMYWVRQAPGQGLEWMGGINPSNGGTNFNEKFKNRVTLTTDSSTTTAYMELKSLQFDDTAVYYCARRDYRFDMGFDYWGQGTTVTVSSASTKGPSVFPLAPSSKSTSGGTAALGCLVKDYFPEPVTVSWNSGALTSGVHTFPAVLQSSGLYSLSSVVTVPSSSLGTQTYICNVNHKPSNTKVDKRVEPKSCDKTHTCPPCPAPEFEGGPSVFLFPPKPKDTLMISRTPEVTCVVVDVSHEDPEVKFNWYVDGVEVHNAKTKPREEQYNSTYRVVSVLTVLHQDWLNGKEYKCKVSNKALPASIEKTISKAKGQPREPQVYTLPPSREEMTKNQVSLTCLVKGFYPSDIAVEWESNGQPENNYKTTPPVLDSDGSFFLYSKLTVDKSRWQQGNVFSCSVMHEALHNHYTQKSLSLSPGGGGGSGGGGSGGGGSGGGGSQVQLVQSGAEVKKPGASVKLSCKASGYIFTRYYMYWVKQRPGQGLEWIGEINPNNGGTKFNEKFKNRATLTVDKSISTAYMELSRLRSDDTAVYYCSREDDYDGTPFAMDYWGQGTLVTVSSGGGGSGGGGSGGGGSGGGGSDIQMTQSPSSLSASVGDRVTITCHASQNINVWLSWYQQKPGKAPKLLIYKASNLHTGVPSRFTGSGSGTDFTFTISSLQPEDIATYYCQQGQTYPYTFGQGTKLEIK
light: B9 light
B12: bsAb032 (bispecific antibody)
heavy: not shown
light: B9 light

Target: BTN3A expressed at the cell surface (human), O00481
Sequence (O00481 30-513): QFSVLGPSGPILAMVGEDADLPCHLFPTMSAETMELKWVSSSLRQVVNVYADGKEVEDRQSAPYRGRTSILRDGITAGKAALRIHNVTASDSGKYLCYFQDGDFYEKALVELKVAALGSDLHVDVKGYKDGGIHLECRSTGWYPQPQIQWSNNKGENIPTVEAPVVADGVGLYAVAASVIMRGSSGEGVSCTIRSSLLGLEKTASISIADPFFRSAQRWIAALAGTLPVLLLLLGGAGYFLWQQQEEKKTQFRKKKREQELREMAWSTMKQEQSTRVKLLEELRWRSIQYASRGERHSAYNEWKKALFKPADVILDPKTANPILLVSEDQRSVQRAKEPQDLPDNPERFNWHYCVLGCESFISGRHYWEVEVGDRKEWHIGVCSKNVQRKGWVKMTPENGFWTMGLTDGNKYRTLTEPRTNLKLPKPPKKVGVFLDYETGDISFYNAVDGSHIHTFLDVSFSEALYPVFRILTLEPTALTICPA
Test: cell-based or functional assay

Jurkat-Vy9Vo2 TCR MOP activation at 0.5 nM (fold-change to medium) | Jurkat-Vy9Vo2 TCR MOP activation at 5 nM (fold-change to medium) | Binder
8.5 | 7.2 | B1
4.2 | 4.5 | B2
4 | 5.8 | B3
5.9 | 6.2 | B4
7 | 10 | B5
3.7 | 5.4 | B6
4.3 | 5.8 | B7
1.4 | 1.6 | B8
1.8 | 2.2 | B9
1 | 1 | B10
1 | 1 | B11
0.9 | 1 | B12
